Test results reported in paper PMC2952866 (Nucleic Acids Research, 2010).

Tests used:
Assay in all cases: SEC + co-IP
Mcm4 = biological target: T1, Mcm4 (Saccharomyces cerevisiae, UniProt P30665 1-933)
T1 sequence: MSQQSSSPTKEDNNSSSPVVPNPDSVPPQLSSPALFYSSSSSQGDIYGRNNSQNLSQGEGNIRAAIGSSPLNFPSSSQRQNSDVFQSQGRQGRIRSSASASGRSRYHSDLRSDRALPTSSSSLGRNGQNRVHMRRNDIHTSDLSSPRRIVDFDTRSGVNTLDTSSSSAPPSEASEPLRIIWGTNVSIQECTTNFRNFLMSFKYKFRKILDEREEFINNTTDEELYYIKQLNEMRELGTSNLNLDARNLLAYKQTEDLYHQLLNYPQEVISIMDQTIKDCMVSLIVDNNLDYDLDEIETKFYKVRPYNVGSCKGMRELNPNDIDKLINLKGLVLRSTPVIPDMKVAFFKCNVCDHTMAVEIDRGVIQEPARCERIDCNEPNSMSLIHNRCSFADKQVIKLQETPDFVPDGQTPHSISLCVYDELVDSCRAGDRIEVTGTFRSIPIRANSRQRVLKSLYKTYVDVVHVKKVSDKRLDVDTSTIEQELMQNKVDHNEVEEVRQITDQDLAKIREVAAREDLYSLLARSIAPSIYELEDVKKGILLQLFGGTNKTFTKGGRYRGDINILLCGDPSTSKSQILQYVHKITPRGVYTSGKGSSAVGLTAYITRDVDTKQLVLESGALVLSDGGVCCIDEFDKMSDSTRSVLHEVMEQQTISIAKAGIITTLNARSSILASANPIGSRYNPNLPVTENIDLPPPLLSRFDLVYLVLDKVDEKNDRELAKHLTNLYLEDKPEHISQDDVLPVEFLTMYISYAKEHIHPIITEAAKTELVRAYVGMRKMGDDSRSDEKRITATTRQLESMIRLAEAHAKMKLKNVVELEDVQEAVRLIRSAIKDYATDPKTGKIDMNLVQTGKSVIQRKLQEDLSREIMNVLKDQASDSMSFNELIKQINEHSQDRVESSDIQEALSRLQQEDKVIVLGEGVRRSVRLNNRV

Mcm6 = Mcm6 (Saccharomyces cerevisiae, UniProt P53091 1-1017)
Mcm3 = Mcm3 (Saccharomyces cerevisiae, UniProt P24279 1-971)
Mcm2 = biological target: T2, Mcm2 (Saccharomyces cerevisiae, UniProt P29469 1-868)
T2 sequence: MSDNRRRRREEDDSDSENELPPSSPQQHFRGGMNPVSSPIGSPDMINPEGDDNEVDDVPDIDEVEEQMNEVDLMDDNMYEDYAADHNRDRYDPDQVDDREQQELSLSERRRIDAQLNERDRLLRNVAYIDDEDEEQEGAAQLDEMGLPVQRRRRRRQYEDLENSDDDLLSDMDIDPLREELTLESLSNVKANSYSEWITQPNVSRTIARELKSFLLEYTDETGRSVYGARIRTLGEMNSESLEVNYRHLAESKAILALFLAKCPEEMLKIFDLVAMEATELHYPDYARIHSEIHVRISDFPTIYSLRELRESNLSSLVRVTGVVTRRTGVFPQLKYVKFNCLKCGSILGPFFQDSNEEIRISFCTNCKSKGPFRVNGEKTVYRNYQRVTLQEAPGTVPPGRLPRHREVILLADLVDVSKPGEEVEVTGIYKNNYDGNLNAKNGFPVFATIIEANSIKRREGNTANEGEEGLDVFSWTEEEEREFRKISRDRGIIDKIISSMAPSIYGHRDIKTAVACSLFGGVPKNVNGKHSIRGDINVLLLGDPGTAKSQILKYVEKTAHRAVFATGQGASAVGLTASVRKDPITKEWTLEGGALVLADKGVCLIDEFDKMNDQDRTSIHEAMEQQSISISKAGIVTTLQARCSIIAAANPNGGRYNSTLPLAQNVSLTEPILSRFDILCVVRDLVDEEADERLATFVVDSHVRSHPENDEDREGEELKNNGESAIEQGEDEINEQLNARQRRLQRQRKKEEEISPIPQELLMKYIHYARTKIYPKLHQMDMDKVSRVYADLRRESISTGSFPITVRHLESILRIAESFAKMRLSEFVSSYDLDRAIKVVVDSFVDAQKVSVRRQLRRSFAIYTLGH

Measured: binding result

Sequence of Mcm3 (P24279 whole entry): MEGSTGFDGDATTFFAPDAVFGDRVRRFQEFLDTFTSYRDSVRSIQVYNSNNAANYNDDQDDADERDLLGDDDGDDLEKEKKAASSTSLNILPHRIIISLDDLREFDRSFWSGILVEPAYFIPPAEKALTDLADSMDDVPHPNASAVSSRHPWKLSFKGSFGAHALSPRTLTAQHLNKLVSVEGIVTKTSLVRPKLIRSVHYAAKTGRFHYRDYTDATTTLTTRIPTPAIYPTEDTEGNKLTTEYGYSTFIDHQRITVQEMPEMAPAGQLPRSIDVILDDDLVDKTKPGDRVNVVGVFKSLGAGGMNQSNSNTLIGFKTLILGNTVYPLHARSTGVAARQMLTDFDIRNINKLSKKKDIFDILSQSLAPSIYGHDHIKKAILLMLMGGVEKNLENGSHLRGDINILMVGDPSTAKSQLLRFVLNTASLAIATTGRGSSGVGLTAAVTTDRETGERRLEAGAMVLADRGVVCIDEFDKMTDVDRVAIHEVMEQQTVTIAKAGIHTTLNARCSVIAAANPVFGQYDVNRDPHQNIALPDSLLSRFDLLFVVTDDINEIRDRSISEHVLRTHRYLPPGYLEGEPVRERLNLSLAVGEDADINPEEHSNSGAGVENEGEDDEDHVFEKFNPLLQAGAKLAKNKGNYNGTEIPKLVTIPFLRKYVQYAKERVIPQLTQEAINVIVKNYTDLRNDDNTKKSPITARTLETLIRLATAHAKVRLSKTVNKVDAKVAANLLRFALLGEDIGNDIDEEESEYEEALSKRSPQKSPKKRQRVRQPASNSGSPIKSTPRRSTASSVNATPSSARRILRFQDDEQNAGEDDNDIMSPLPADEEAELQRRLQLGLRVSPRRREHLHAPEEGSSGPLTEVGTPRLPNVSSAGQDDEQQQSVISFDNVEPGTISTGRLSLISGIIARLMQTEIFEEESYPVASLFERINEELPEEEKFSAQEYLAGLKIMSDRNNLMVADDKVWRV
Sequence of Mcm6 (P53091 whole entry): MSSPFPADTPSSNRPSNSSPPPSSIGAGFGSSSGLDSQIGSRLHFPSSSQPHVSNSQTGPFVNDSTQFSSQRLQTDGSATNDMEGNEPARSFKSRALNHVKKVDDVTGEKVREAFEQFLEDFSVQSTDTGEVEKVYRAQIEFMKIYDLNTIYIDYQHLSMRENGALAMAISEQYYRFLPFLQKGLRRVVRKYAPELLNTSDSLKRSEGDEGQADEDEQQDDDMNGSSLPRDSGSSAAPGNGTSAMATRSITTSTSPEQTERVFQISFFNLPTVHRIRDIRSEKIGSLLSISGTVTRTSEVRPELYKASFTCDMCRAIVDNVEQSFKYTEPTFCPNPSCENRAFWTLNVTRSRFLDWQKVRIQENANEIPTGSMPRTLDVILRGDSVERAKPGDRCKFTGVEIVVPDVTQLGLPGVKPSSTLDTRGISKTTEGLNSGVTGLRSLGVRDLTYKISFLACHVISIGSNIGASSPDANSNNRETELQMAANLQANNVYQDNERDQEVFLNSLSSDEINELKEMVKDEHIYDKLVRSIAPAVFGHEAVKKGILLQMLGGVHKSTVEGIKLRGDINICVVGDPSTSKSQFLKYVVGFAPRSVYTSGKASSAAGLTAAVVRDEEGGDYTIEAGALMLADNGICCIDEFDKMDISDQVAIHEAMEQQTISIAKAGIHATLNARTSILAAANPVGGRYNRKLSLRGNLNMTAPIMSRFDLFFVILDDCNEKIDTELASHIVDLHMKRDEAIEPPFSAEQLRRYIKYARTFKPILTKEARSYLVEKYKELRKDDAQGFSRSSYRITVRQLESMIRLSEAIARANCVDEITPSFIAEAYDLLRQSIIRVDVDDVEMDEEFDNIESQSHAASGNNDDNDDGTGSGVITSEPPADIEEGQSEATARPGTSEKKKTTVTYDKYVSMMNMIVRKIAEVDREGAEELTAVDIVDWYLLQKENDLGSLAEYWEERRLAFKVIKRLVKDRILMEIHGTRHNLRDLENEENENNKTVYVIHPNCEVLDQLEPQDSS

B1: Mcm7 (natural protein)
chain: MSAALPSIQLPVDYNNLFNEITDFLVTFKQDTLSSDATRNENEDENLDAENIEQHLLEKGPKYMAMLQKVANRELNSVIIDLDDILQYQNEKFLQGTQADDLVSAIQQNANHFTELFCRAIDNNMPLPTKEIDYKDDVLDVILNQRRLRNERMLSDRTNEIRSENLMDTTMDPPSSMNDALREVVEDETELFPPNLTRRYFLYFKPLSQNCARRYRKKAISSKPLSVRQIKGDFLGQLITVRGIITRVSDVKPAVEVIAYTCDQCGYEVFQEVNSRTFTPLSECTSEECSQNQTKGQLFMSTRASKFSAFQECKIQELSQQVPVGHIPRSLNIHVNGTLVRSLSPGDIVDVTGIFLPAPYTGFKALKAGLLTETYLEAQFVRQHKKKFASFSLTSDVEERVMELITSGDVYNRLAKSIAPEIYGNLDVKKALLLLLVGGVDKRVGDGMKIRGDINVCLMGDPGVAKSQLLKAICKISPRGVYTTGKGSSGVGLTAAVMKDPVTDEMILEGGALVLADNGICCIDEFDKMDESDRTAIHEVMEQQTISISKAGINTTLNARTSILAAANPLYGRYNPRLSPLDNINLPAALLSRFDILFLMLDIPSRDDDEKLAEHVTYVHMHNKQPDLDFTPVEPSKMREYIAYAKTKRPVMSEAVNDYVVQAYIRLRQDSKREMDSKFSFGQATPRTLLGIIRLSQALAKLRLADMVDIDDVEEALRLVRVSKESLYQETNKSKEDESPTTKIFTIIKKMLQETGKNTLSYENIVKTVRLRGFTMLQLSNCIQEYSYLNVWHLINEGNTLKFVDDGTMDTDQEDSLVSTPKLAPQTTASANVSAQDSDIDLQDA
binds: all assays above
